# Measurements: US20220235103A1 (Molecular Partners, published 2022)
# Numbering of substitutions follows the chain as printed.
# B1: vS07_23E04 (designed binder)
# chain: MRGSHHHHHHGSDLGKKLLQAARAGQLDEVRELLKAGADVNAKDQEGITPLHVAAHQGHLEIVEVLLKAGADVNAKDVWGRTPLHLAAWRGHLEIVEVLLKAGADVNAKDHAGATPLHAAALSGHLEIVEVLLKAGADVNAQDKSGKTPADLAARAGHQDIAEVLQKAA
# notes: also called R3c
# B2: vS07_12C06 (designed binder)
# chain: B1 chain with Q45R, I48K, H56Q, Q57E, R90I, H111V, A112S, S123H, K134N
# notes: also called R1b; Rb1
# B3: vS07_29B10 (designed binder)
# chain: B1 chain with Q45R, V53L, H56Q, Q57H, R90Q, H111L, A119V, S123Y
# notes: also called R3b
# Molecular target: SARS-CoV-2 spike protein G476S (SARS-CoV-2, UniProt P0DTC2 14-1273)
# Test: cell-based or functional assay
row,Binder,VSV Pseudotype Neutralization Assay IC50 [ng/mL]
1,B1,29
2,B2,3.7
3,B3,2.3

# Molecular target: SARS-CoV-2 spike protein G446V (SARS-CoV-2, UniProt P0DTC2 14-1273)
# Test: cell-based or functional assay
row,Binder,VSV Pseudotype Neutralization Assay IC50 [ng/mL]
1,B1,2.3
2,B2,1.8
3,B3,0.7

# Molecular target: SARS-CoV-2 spike protein A222V (SARS-CoV-2, UniProt P0DTC2 14-1273)
# Test: cell-based or functional assay
row,Binder,VSV Pseudotype Neutralization Assay IC50 [ng/mL]
1,B1,19.5
2,B2,4.6
3,B3,3.3
